Measurements published in publication doi:10.1101/2019.12.17.877662 (bioRxiv, 2019).
Numbering of substitutions follows the chain as printed. Numbers in names are those of the source.

T1: TtRecR (Thermus thermophilus, UniProt Q5SHY0 1-194)
T1 sequence: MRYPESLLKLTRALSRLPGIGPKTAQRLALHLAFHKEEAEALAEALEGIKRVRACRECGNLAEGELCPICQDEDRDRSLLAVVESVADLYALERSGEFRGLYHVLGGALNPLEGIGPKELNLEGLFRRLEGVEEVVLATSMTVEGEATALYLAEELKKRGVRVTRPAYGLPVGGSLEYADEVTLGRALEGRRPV

T2: TtRecR G169C (Thermus thermophilus, UniProt Q5SHY0 1-194, G169C)
T2 sequence: T1 sequence with G169C

T3: TtRecF (Thermus thermophilus, UniProt Q5SLM9 1-343)
T3 sequence: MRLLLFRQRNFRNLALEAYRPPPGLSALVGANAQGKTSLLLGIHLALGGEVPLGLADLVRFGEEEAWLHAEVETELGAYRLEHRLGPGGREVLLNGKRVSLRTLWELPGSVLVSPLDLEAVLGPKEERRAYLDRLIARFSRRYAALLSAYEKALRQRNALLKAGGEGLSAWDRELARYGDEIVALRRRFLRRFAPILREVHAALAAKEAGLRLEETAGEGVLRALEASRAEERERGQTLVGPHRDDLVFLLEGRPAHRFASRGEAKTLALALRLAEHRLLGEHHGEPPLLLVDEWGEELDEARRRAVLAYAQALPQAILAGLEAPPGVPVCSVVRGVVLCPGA

T4: TtRecF;TtRecR (Thermus thermophilus;Thermus …, UniProt Q5SLM9;Q5SHY0 1-343;1-194, |)
T4 sequence 1: T3 sequence
T4 sequence 2: T1 sequence

T5: TtRecF;TtRecR G169C (Thermus thermophilus;Thermus …, UniProt Q5SLM9;Q5SHY0 1-343;1-194, |G169C)
T5 sequence 1: T3 sequence
T5 sequence 2: T1 sequence with G169C

T6: TtRecF (wild type RecF from Thermus thermophilus) (Thermus thermophilus, UniProt Q5SLM9 1-343)
T6 sequence (looked up): T3 sequence

T7: TtRecF D57C;TtRecR (Thermus thermophilus;Thermus …, UniProt Q5SLM9;Q5SHY0 1-343;1-194, D57C|)
T7 sequence 1: T3 sequence with D57C
T7 sequence 2: T1 sequence

T8: TtRecF D57C (Thermus thermophilus, UniProt Q5SLM9 1-343, D57C)
T8 sequence: T3 sequence with D57C

T9: TtRecF S261C (Thermus thermophilus, UniProt Q5SLM9 1-343, S261C)
T9 sequence: T3 sequence with S261C

T10: TtSSB (Thermus thermophilus, UniProt Q5SLP9 1-263)
T10 sequence: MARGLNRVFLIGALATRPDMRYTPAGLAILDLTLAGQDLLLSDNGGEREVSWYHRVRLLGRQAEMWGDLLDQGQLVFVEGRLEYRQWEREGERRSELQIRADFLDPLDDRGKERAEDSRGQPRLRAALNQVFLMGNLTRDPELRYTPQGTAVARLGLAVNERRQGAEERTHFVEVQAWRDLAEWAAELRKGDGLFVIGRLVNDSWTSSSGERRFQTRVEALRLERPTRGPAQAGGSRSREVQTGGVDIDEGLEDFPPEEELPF

T11: TtRecF S261C;TtRecR (Thermus thermophilus;Thermus …, UniProt Q5SLM9;Q5SHY0 1-343;1-194, S261C|)
T11 sequence 1: T3 sequence with S261C
T11 sequence 2: T1 sequence

B1: TtRecF_(D57C) (natural protein, Thermus thermophilus, UniProt Q5SLM9 1-343, looked up)
chain: T3 sequence with D57C
B2: TtRecR (wild type RecR from Thermus thermophilus) (natural protein, UniProt Q5SHY0 1-194, looked up)
chain: T1 sequence
B3: TtRecF_(S261C) (natural protein, Thermus thermophilus, UniProt Q5SLM9 1-343, looked up)
chain: T3 sequence with S261C
B4: TtRecR_(G169C) (stabilized tetrameric mutant of TtRecR) (natural protein, Thermus thermophilus, UniProt Q5SHY0 1-194, looked up)
chain: T1 sequence with G169C

How the values were obtained:
TtRecR [1] = target: T1, TtRecR; test: EMSA
TtRecR G169C [2] = target: T2, TtRecR G169C; test: EMSA
TtRecF = target: T3, TtRecF; test: EMSA
TtRecF;TtRecR = target: T4, TtRecF;TtRecR; test: EMSA
TtRecF;TtRecR G169C = target: T5, TtRecF;TtRecR G169C; test: EMSA
cross-linking = target: the molecule itself; test: cross-linking
TtRecF_(D57C) = target: B1; test: BLI
TtRecF_(S261C) = target: B3; test: BLI
crystal structure = target: the molecule itself; test: crystal structure
[3] = target: T6, TtRecF (wild type RecF from Thermus …); test: native gel or EMSA
TtRecF D57C;TtRecR = target: T7, TtRecF D57C;TtRecR; test: BLI
TtRecF D57C = target: T8, TtRecF D57C; test: BLI
TtRecF S261C = target: T9, TtRecF S261C; test: BLI
TtSSB = target: T10, TtSSB; test: BLI
TtRecF S261C;TtRecR = target: T11, TtRecF S261C;TtRecR; test: BLI
TtRecR [4] = target: T1, TtRecR; test: BLI
TtRecR G169C [5] = target: T2, TtRecR G169C; test: BLI

Binder: TTTTTTTTTTTTTTTTTTTTTTTTTTTTTTTTTTT (ssDNA) [FAM-dT35]
binding result (TtRecR [1]): no binding
binding result (TtRecR G169C [2]): no binding
binding result (TtRecF): no binding
binding result (TtRecF;TtRecR): binds
binding result (TtRecF;TtRecR G169C): no binding

Binder: B1
stoichiometry N (cross-linking): 2

Binder: B2
binding result (TtRecF_(D57C)): binds
binding result (TtRecF_(S261C)): binds
stoichiometry N (crystal structure): 4
binding result [3]: binds

Binder: B3
stoichiometry N (cross-linking): 2

Binder: B4
stoichiometry N (cross-linking): 4
binding result [3]: binds

Binder: GCAATGAAGTACGCTTGCCAGCTGCAGTCATGATTG (ssDNA) [biotinylated 36-mer ssDNA]
binding result (TtRecF D57C;TtRecR): binds
Kd (TtRecF D57C): 146 µM
Kd (TtRecF S261C): 19.7 µM
Kd (TtSSB): ~0.0072 µM
binding result (TtRecF S261C;TtRecR): binds
binding result (TtRecR [4]): no binding
binding result (TtRecR G169C [5]): binds
